# Test results taken from a protein production outcome set (Wang et al. 2014).
# Assay: label from the status in PepcDB records
# 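Also: failed if final PepcDB status was selected cloned or expressed and not failed if soluble or beyond.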
row,Sequence,protein production
1,KLRDLDIIVTAPPAPGWGGRYWILVKLTTDDGITGWGECYAASVGPEAMRAVIEDVFARHMEGENPENIELMFRRVYSSGFTQRPDLTAIGAFSGLEIACWDILGKARGRPVWALLGGKMNPRIRAYTYLYPLPHHPITPFWTSADMAAESAADCVARGYTAVKFDPAGPYTLRGGHMPAMTDISLSVEFCRKIRAAVGDKADLLFGTHGQFTTAGAIRLGQAIEPYSPLWYEEPVPPDNVGAMAQVARAVRIPVATGERLTTKAEFAPVLREGAAAILQPALGRAGGIWEMKKVAAMAEVYNAQMAPHLYAGPVEWAANVHFAASIPNILMCESIETPFHDALIKGSIRVEGGYITPPEAPGLGIEVDEALARANPYHGTGLHLEMQEASCDYTNGNSFAGGAPHEEG,not failed
2,KMPSPYSHKEFVKEIAPTAQKLSKIYGVRSSIIIGQAALDSHFGSTLLASKYHNLFSIEASPGQGAVRLKSHEYKNGRWQEVTNRYLVYESWKESLYDYMAILHGNKIWDKALYTTMMTSSGYKTVARALQAAGFNSDPNYADKLIAVIEENNL,not failed
3,KRIQYSVITILVLLIAVILIYMFSPLSKIAHVNINGNNHVSTSKINKVLGVKNDSRMYTFSKKNAINDLEEDPLIKSVEIHKQLPNTLNVDITENEIIALVKYKGKYLPLLENGKLLKGSNDVKINDAPVMDGFKGTKEDDMIKALSEMTPEVRRYIAEVTYAPSKNKQSRIELFTTDGLQVIGDISTISKKMKYYPQMSQSLSRDSSGKLKTRGYIDLSVGA,failed
4,KRREIPLKVLVKAVLFACMLMRKTMASRVRVTILFATETGKSEALAWDLGALFSCAFNPKVVCMDKY,failed
5,KRRIRQLELQVRMLEADKERLERELSRLRSEMSRLRQPPAFAGSVIEVLDDDRAIVQNYNGPRFVVRIAPWIDKSKLRPGTRVALDQRTMAIIEILPASKDPAVLGFEVVERPN,not failed
6,KRVFGFVSAKGGDGGSCIAANFAFALSQEPDIHVLAVDISLPFGDLDMYLSGNTHSQDLADISNASDRLDKSLLDTMVQHISPSLDLIPSPATFEKIVNIEPERVSDLIHIAASFYDYIIVDFGASIDHVGVWVLEHLDELCIVTTPSLQSLRRAGQLLKLCKEFEKPISRIEIILNRADTNSRITSDEIEKVIGRPISKRIPQDEDAMQESLLSGQSVLKVAPKSQLSKTIVDWALHLNGVSRPNKRSIWERLKIK,not failed
7,KSPGWMKHLDQEQAVHSESETYGISSWVYSARLPFHPQRFQHFLAHPWTNGTLLRCKGYIWNAKCYQDIGMLVQTGGQFEWEIVGRWWNFINQSDWPQDHYRRDSIFEKWDERTGDCRQEIVFIGQNIDWNTLKHQLDDCLLTLQEIEDGPEAWLNY,failed
8,KVILYARVSSSTQKDELVNQVKYLEEQVKEYDLVITDIGSGLNMKRKGFLKLLRMILNNEVSRVVVAYPDRLVRVGFEILEEVCKAHNCEIVVLNQEDKEEELVEDLMSALVSFSGKLYGMRSHEYEKVKKCAEELKNW,not failed
9,KVKELNLHELCAVCLEDFKPRDELGICPCKHAFHRKCLIKWLEVRKVCPLCNMPVLQLAQL,not failed
10,KVSVNDIMVPRNEIVGIDINDDWKSIVRQLTHSPHGRIVLYRDSLDDAISMLRVREAYRLMTEKKEFTKEIMLRAADEIYFVPEGTPLSTQLVKFQRNKKKVGLVVDEYGDIQGLVTVEDILEEIVGDFT,not failed
11,KYTQNNFITGVRAINEFCLKSSDLEQLRKIRRRSPHEDTESFTVYLRSDVEAKSLEVWGSPEALAREKKLRKEAEIEYRERLFRNQKILREYRD,not failed
12,LDAILIADDEGCYVDVNAAACELFGVSREELLASTIADFAAPEFNFTQAWQQFREQEQMSGEFQLHRPNGTVRATEFAAVANFIPHRHLSIIRDVSDRQQAKANLQNSEQRLQLALSASS,failed
13,LEKAGDSVEITNEEAVIQYVNPAFENITLYNAREAMNKTVASLLRSPVEDAQLFEEINQTLKSGNTWKGQIRSRKKDGSYWVAQTIIVPVMDDELGRITQHIAIKQDIT,failed
14,LESKIVDISTRFINTPIDDLDREIEAALQAIGAFVDADRSYVFLFDDEAATMSNTHEWRTEATASTQSRLQNIPYAETPWFMARMRRREGPLRVPRLEDLPPDAAGLRQRLEAGNVQSLLVLPMLNDQDLIGFVGFDAVRQQRDWDADTVMLLRVLSDAISNALQRKTAEKEMLAAKEEAEDANRMKS,failed
15,LFTHRPIHTHTVTFSGGGENSAMYASIGFYDDRGWTLADHVKRITANIKNSFYWNEDKIKATISAQGNLRNQNSPGTIPQRRNTVIGTFERDFDINPFSYALSTSRTLRPHNADGKREFYRNNWAPFNILNEYENNYLKTEVLDLKLQGELSYRLNDHIEVKGLAMVRHAVTKSSHFIAEASNVVQAFRANETPYVARENIYLLKNKDDPMQLPGVALTHGGIFNKTETSLRSYLGRLALDYNRQLSEHNIRAFGFTEIRYADRSMNPFQGYGIQYDRGNQVFSNPLIFEKLANEGDTYFSLTERYERGVTLSGSATYGYAEKYIFNGVFNYEGANTAGKYSRSRWLPTWNIGAKWNLDQEKFMRKHTTISRLALRTSYGLTAKMNEQAVNSTTVFKHVMVNRTLLKDRENALRILHLENRDLTWEKMYELNFGLELGLFGNRISATFDVYQRNSFDLIDLIRTSGVGGQYYKYANFGDMRTRGVELAIQTQNILTDKFSWSTTVT,failed
16,LGGVAPEQVAYAVEQAGKRLQERDNAGVKVRPARLTDLDALEGMVAYWAGLGENLPRNRNELVRDIGSFAVAEHHGEVTGCASLYVYDSGLAEIRSLGVEAGWQSQGQGKAIVQHLVEKAREMAIKKVFVLTRVPEFFMKQDFIPTSRSLLPEKVLKDCDQCPRQH,failed
17,LGIAINEMIRMLRAARDEDDRRNWLKDGYGQVSAALTGDLTTEQLADAAIGLIGRYLDAGRGVFYLYRDAEQRLDLIGSYMYTERNNLGASFALGEGAVGQVARERKPIILEVSGDDAAPIVTGTMLALPRYTYTYPLLHEKELVGVIELSSFDHFDERKLEFLANVGGMLASFL,failed
18,LGNAMNIPAPIRIEAFDNSNIMGTNPVSAMVVFIDGRPAKNEYRKYKIKTVQGPDDYASMREVIYRRYSRVLKEGLPFPDLILIDGGKGQVDVAKDVLANQLGVDIPVAGLAKNDKHKTSELLFGPNLEVVPLERNSQEFFLLQRIQDEVHRFAI,not failed
19,LKCSTVVCVICLEKPKYRCPACRVPYCSVVCFRKHKEQCNPET,not failed
20,LKLEVVEDKQYGRLANRIENVVSQERTRKKFESLVSDSPDGIVHLTTNGTILSVNPSMAGRLGADPDTLVGQQLSAVMDSEAANQRLEAGKSAVENGTATRSEDAVGGRHYHNQYIPVDSHR,failed
21,LKYILETKLEEERNHLEELLEKVEEDYEGINYDEVLEALKLFKDNYELPKSKIKRKIRIFLIKENILFLNPQKGTLKPQSYLVWNAIKRML,not failed
22,LLLTRPDEECAALAASLGEAGVHSSSLPLLAIDPLEETPEQRTLMLDLDRYCAVVVVSKPAARLGLERLDRYWPQPPQQTWCSVGAATAAILEAYGLDVTYPEQGDDSEALLALPAFQDSLRVHDPKVLIMRGEGGREFLAERLRGQGVQVDYLPLYRRRAPDYPAGELLARVRAERLNGLVVSSGQGLQNLYQLAAADWPEIGRLPLFVPSPRVAEMARELGAQRVIDCRGASAPALLAALTSAA,failed
23,LPDQRTVLYVHGGAWFQDPLENHFEYLDLLVDALDARVIMPVYPKIPHRDYRTTFELLTKIYKRLLTKIDEPENLVIIGDSAGGQIALAFAQMLKKEQLSQPGHIVLISPVLDATFKNPEARKYEKEDPMLGIDGSKYLVELWAGDAPLDDYKMSPMNGDLEGLGHITLTVGTKETLYPDAVKFSHMLNDKGIKHQFIPGYNLFHIYPLFPIPERQRFLEQLKKIIVTKEL,not failed
24,LPIIVKWGGQEYSVTTLSKDDTVLDLKQFLKTLTGVLPERQKLLGLKVKGKPAENDVKLGALKLKPNTKIMMMGTRE,not failed
25,LPLTDALRKALAEAPKHTANIARKRHILFIGKLMRDQDQEAILVLLDQLDASTRQYNERFHNLERWRDRLIAGDDADLEKFVIEYPDADRQQLRSLIRQAQHEVARNKP,failed
26,LPSFRHKVFALVLVGVFVGLGAYLVYMSKAYSYLSDDPRVCINCHVMGPYYATWQHSSHAMRATCNDCHVPHNSIFSKYYFKASDGLRHSYVFTMRNEPQRMQAISASQAVIYDNCVRCHAQLNQEFVRTGMLTRADIRTAEEKACWDCHRDVPHGGKNS,failed
